Among the data in publication PMC2115223 are fold less potent than nicked CRM197 in competition values, retold here.

The target of the assay is diphtheria toxin receptor (14.5-kD protein of Vero cells) (African green monkey (endogenous in Vero)). In words: radioligand binding.
Chain of diphtheria toxin receptor (14.5-kD protein of Vero cells) (African green monkey (endogenous in Vero)) (Q09118 20-208 limits assumed): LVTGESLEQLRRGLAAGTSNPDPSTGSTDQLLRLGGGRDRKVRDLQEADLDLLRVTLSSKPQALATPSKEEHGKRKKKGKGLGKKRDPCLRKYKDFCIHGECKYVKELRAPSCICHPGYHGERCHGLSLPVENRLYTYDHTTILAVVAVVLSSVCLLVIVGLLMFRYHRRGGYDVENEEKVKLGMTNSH

Consider CRM228 (natural protein), for which the fold less potent than nicked CRM197 in competition worked out at 200 times.
